In patent publication US6903203B2, “Monoclonal antibody to CEA, conjugates comprising said antibody and their therapeutic use” (AstraZeneca UK Ltd., priority 1996, dated 2005):

T1: CEA (Homo sapiens, UniProt P06731)
T1 sequence (P06731 35-676): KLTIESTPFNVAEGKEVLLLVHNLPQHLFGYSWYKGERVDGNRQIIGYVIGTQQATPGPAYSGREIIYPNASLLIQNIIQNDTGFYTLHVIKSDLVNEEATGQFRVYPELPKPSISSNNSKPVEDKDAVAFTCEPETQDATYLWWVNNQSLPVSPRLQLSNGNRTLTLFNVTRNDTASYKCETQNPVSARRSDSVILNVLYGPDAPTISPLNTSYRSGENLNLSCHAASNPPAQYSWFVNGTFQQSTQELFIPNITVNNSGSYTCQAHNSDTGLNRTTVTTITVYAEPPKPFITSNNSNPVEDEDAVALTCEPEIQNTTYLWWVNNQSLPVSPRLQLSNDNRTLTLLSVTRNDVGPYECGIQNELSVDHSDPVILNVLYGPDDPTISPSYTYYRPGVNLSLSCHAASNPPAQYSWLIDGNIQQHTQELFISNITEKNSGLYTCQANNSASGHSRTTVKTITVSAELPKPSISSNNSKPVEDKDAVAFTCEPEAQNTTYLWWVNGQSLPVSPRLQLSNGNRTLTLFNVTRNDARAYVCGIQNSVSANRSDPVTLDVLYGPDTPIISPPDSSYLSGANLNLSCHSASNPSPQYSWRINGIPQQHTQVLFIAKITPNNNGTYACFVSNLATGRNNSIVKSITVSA

B1: Example 75: [A248S,G251T,D253K]HCPB fused via (GGGS)3 linker to N-terminus of humanised 806.077 Fd (HuVH1-HuIgG3), with HuVK4-HuCK light chain (antibody)
heavy: HHGGEHFEGEKVFRVNVEDENHINIIRELASTTQIDFWKPDSVTQIKPHSTVDFRVKAEDTVTVENVLKQNELQYKVLISNLRNVVEAQFDSRVRATGHSYEKYNKWETIEAWTQQVATENPALISRSVIGTTFEGRAIYLLKVGKAGQNKPAIFMDCGFHAREWISPAFCQWFVREAVRTYGREIQVTELLDKLDFYVLPVLNIDGYIYTWTKSRFWRKTRSTHTGSSCIGTDPNRNFDAGWCEIGASRNPCDETYCGPAAESEKETKALADFIRNKLSSIKAYLTIHSYSQMMIYPYSYAYKLGENNAELNALAKATVKELASLHGTKYTYGPGATTIYPSAGTSKDWAYDQGIRYSFTFELRDTGRYGFLLPESQIRATCEETFLAIKYVASYVLEHLYGGGSGGGSGGGSEVQLQQSGPGLVRPSQTLSLTCTASGFNIKDNYMHWVRQPPGRGLEWIGWIDPENGDTEYAPKFRGRVTMLADTSKNQFSLRLSSVTAADTAVYYCHVLIYAGYLAMDYWGQGTLVTVSSASTKGPSVFPLAPCSRSTSGGTAALGCLVKDYFPEPVTVSWNSGALTSGVHTFPAVLQSSGLYSLSSVVTVPSSSLGTQTYTCNVNHKPSNTKVDKRVELKTPLGDTTHTCPRCPEPKSCDTPPPCPRCPEPKSCDTPPPCPRCPEPKSCDTPPPCPRCPAPELLGG
light: DIQMTQSPSSLSASVGDRVTITCSASSSVTYMHWYQQKPGKAPKLWIYSTSNLASGVPSRFSGSGSGTDYTFTISSLQPEDIATYYCQQRSTYPLTFGQGTKLEIKRTVAAPSVFIFPPSDEQLKSGTASVVCLLNNFYPREAKVQWKVDNALQSGNSQESVTEQDSKDSTYSLSSTLTLSKADYEKHKVYACEVTHQGLSSPVTKSFNRGEC
B2: 806.077 antibody: novel murine anti-CEA monoclonal antibody from hybridoma 806.077, ECACC deposit no. 96022936 (antibody, V domains shown)
VH: EVQLQQSGAELVRSGASVKLSCTASGFNIKDNYMHWVKQRPEQGLEWIAWIDPENGDTEYAPKFRGKATLTADSSSNTAYLHLSSLTSEDTAVYYCHVLIYAGYLAMDYWGQGTSVAVSS
VL: DIELTQSPAIMSASPGEKVTITCSASSSVTYMHWFQQKPGTSPKLWIYSTSNLASGVPARFSGSGSGTSYSLTISRMEAEDAATYYCQQRSTYPLTFGAGTKLELKRA

Legend:
CEA = biological target: T1, CEA; test: CEA binding ELISA; details: media of NS0 clones
Procedure: For the CEA ELISA each well of a 96 well immunoplate (NUNC MAXISORB™) was coated with 50 ng CEA in 50 mM carbonate/bicarbonate coating buffer pH9.6 (buffer capsules—Sigma C3041) and incubated at 4° C. overnight. The plate was washed three times with PBS+0.05% Tween 20 and then blocked 150 μl per well of 1% BSA in PBS +0.05% Tween 20 for 1 hour at room temperature. The plate was washed as previously described, 100 μl of test sample added per well and incubated at room temperature for 2 hours. Again the plate was washed three times with PBS+0.05% Tween 20, 100 μl per well of a 1/500 dilution of HRPO-labelled goat anti-human kappa antibody (Sigma A 7164) was added, in 1% BSA in PBS-Tween 20 and incubated at room temperature on a rocking platform for at least 1 hour. The plate was washed as before and then once more with PBS. To detect binding add 100 μl per well developing solution (one capsule of phosphate-citrate buffer—Sigma P4922—dissolved in 100 mls H2O to which is added one 30 mg tablet o-phenylenediamine dihydrochloride—Sigma P8412) and incubated for up to 15 minutes. The reaction was stopped by adding 75 μl 2M H2SO4, and absorbance read at 490 nm.
Media from wells containing single viable clones was taken for testing and replaced with fresh media (containing G418). […]

[1] = test system: Post mortem normal tissues; test: Three-stage indirect immunohistology on frozen sections, post mortem normal tissues; format: binding, human; details: cerebellum, mid-brain, cerebrum, smooth muscle, liver, kidney, aorta, stomach, heart; 2 μg/ml
Procedure: (§1) To assess selectivity, many human normal and tumour tissues have been screened for reactivity with the antibody 806.077, using sensitive three-stage indirect immunohistology on acetone-fixed, frozen cryostat sections.
(§2) Immunohistology was carried out on sections of human tissue obtained either at resection surgery or at post mortem. To preserve optimal morphology and antigenicity, tissues were obtained as fresh as possible, cut into small pieces (about 0.5 cm^3) and flash frozen in liquid nitrogen prior to storage at −80° C. Sections of tissue (6μ) were cut on a cryostat, mounted on polylysine coated slides (e.g. blue TECHMATE™ slides, Dako) and fixed in ice-cold acetone for 2 minutes before being wrapped in foil and stored at −80° C.
(§3) Slides were allowed to defrost at room temperature before being unwrapped from the foil immediately prior to use. Each section was outlined with a diamond marker, and to each section was added either 100 μl 806.077 antibody diluted to 2 μg/ml in Tris-buffered Saline (TBS), or 100 μl CEA/NCA reactive control (A5B7 antibody) at 2 μg/ml in TBS, or 100 μl MOPC isotype control (Sigma Chemical Company, St. Louis, U.S.A., Cat. No. M 9269) at 2 μg/ml in TBS, or relevant positive control such as LP34 (Dako). All subsequent incubations were carried out at room temperature for 30 minutes in a humidified chamber: all wash steps were in TBS with 2 changes. […]

Colon tumours = test: Three-stage indirect immunohistology on frozen sections, colon tumours; format: binding, human; details: tissue culture supernatant neat and diluted 1:10
Procedure: as §1, §2
(§4) Slides were allowed to defrost at room temperature before being unwrapped from the foil immediately prior to use. […] Louis, U.S.A., Cat. No. M 9269) at 2 μg/ml in TBS, or relevant positive control such as LP34 (Dako). All subsequent incubations were carried out at room temperature for 30 minutes in a humidified chamber: all wash steps were in TBS with 2 changes. After incubation, the slides were washed and 100 μl of second antibody reagent, comprising 1/50 rabbit anti-mouse immunoglobulins conjugated to horse radish peroxidase (Dako Patts) and ⅕ normal human serum (Sigma) in TBS was added to each section.
The slides were again incubated and washed in TBS. […]

Breast tumours = test: Three-stage indirect immunohistology on frozen sections, breast tumours; format: binding, human; set-up: key: +++ (strong)=antibody binding to >75% tumour cells; ++ (moderate)=antibody binding to 50%-75% tumour cells; + (weak)=antibody binding to 25%-50% tumour cells; +/− (minimal)=non-focal antibody binding to a small area of tumour cells; −=no staining; details: Breast tumours (n=6), score seen in 2/6 tumours; 2 μg/ml
Procedure: as §1, §2, §3

NSCLC tumours = test: Three-stage indirect immunohistology on frozen sections, NSCLC tumours; format: binding, human; details: NSCLC tumours (n=6), score seen in 1/6 tumours; 2 μg/ml
Procedure: as §1, §2, §3

prostate tumours = test: Three-stage indirect immunohistology on frozen sections, prostate tumours; format: binding, human; details: prostate tumours (n=3), any tumour; 2 μg/ml
Procedure: as §1, §2, §3

Lung (NCA reactivity) = test: Three-stage indirect immunohistology on frozen sections, normal lung; format: binding, human; set-up: key to degree of binding (staining score): +++ (strong)=antibody binding to >75% tumour cells; ++ (moderate)=antibody binding to 50%-75% tumour cells; + (weak)=antibody binding to 25%-50% tumour cells; +/− (minimal)=non-focal antibody binding to a small area of tumour cells; −=no staining
Procedure: as §1, §2, §4
The slides were again incubated and washed in TBS. A final detecting antibody, 100 μl swine anti-rabbit immunoglobulin conjugated to horse radish peroxidase ( 1/50 dilution with ⅕ normal human serum in TBS), was added to each section, incubated and washed thoroughly. DAB substrate (3,3′-diaminobenzidine tetrahydrochloride) was prepared using 1 DAB tablet (Sigma) with hydrogen peroxide (17 μl) in TBS (17 ml), and added dropwise through a fast filter paper (e.g. Whatman Number 4). After 3 minutes incubation the excess DAB was tapped off the slides and the slides were washed in TBS. […]

Ovary tumours = test: Three-stage indirect immunohistology on frozen sections, ovary tumours; format: binding, human; details: Ovary tumours (n=3), any tumour; 2 μg/ml
Procedure: as §1, §2, §3

[2] = test system: Spleen (granulocyte/NCA reactivity); test: Three-stage indirect immunohistology on frozen sections, normal spleen; format: binding, human
Procedure: as §1, §2, §3

Row | Molecule | antibody binding to CEA in an ELISA (CEA) | reactivity [1] | binding compared to A5B7 (Colon tumours) | degree of binding (staining score) (Breast tumours) | degree of binding (staining score) (NSCLC tumours) | staining (prostate tumours) | staining of normal lung tissues (summary statement) (Lung (NCA reactivity); 4/14 normal lung tissues tested) | degree of binding (staining score) (Lung (NCA reactivity); normal lung (n=14), score seen in 10/14 tissues, 2 μg/ml) | binding compared to A5B7 (Lung (NCA reactivity); normal lung, tissue culture supernatant neat and diluted 1:10) | staining (Ovary tumours) | binding compared to A5B7 ([2]; normal spleen, tissue culture supernatant neat and diluted 1:10) | staining ([2]; spleen (n=6), any of the tissues tested, 2 μg/ml)
1 | B1 | positive |  |  |  |  |  |  |  |  |  |  | 
2 | B2 |  | negative | equivalent binding | +/− | ++ (++ (moderate)=antibody binding to 50%-75% tumour cells) | No staining | minimal staining | − | much reduced binding | No staining | much reduced binding | No staining
